# Experimental data as given in the Human Domainome abundance scans (Beltran et al. 2025).
# ± gives the uncertainty stated by the source.
# B1: Lysine-specific demethylase 2B, residues 656 to 722; numbered along this chain, Q8NHM5 (parent)
# chain: LPHTAVCLVCGEAGKEDTVEEEEGKFNLMLMECSICNEIIHPGCLKIKESEGVVNDELPNCWECPKC
# Variants of: B1
# Experiment: abundance fitness (aPCA) (normalised: wild type 0, dead -1); higher = more abundant; growth selection in yeast, the domain comes from the species named
# Conditions: Homo sapiens
row,Variant,abundance fitness
1,LPHTAVCLVCGEAGKEDTVEEEEGKFNLMLMECSICAEIIHPGCLKIKESEGVVNDELPNCWECPKC [N37A],0.094 ± 0.085
2,LPHTAVCLVCGEAGKEDTVEEEEGKFNLMLMECSICDEIIHPGCLKIKESEGVVNDELPNCWECPKC [N37D],-0.026 ± 0.16
3,LPHTAVCLVCGEAGKEDTVEEEEGKFNLMLMECSICHEIIHPGCLKIKESEGVVNDELPNCWECPKC [N37H],0.081 ± 0.12
4,LPHTAVCLVCGEAGKEDTVEEEEGKFNLMLMECSICCEIIHPGCLKIKESEGVVNDELPNCWECPKC [N37C],0.34 ± 0.33
5,LPHTAVCLVCGEAGKEDTVEEEEGKFNLMLMECSICKEIIHPGCLKIKESEGVVNDELPNCWECPKC [N37K],0.095 ± 0.2
6,LPHTAVCLVCGEAGKEDTVEEEEGKFNLMLMECSICGEIIHPGCLKIKESEGVVNDELPNCWECPKC [N37G],0.092 ± 0.059
7,LPHTAVCLVCGEAGKEDTVEEEEGKFNLMLMECSICEEIIHPGCLKIKESEGVVNDELPNCWECPKC [N37E],0.02 ± 0.1
8,LPHTAVCLVCGEAGKEDTVEEEEGKFNLMLMECSICFEIIHPGCLKIKESEGVVNDELPNCWECPKC [N37F],-0.233 ± 0.2
9,LPHTAVCLVCGEAGKEDTVEEEEGKFNLMLMECWICNEIIHPGCLKIKESEGVVNDELPNCWECPKC [S34W],-0.545 ± 0.15
10,LPHTAVCLVCGEAGKEDTVEEEEGKFNLMLMECSTCNEIIHPGCLKIKESEGVVNDELPNCWECPKC [I35T],0.147 ± 0.15
11,LPHTAVCLVCGEAGKEDTVEEEEGKFNLMLMECSLCNEIIHPGCLKIKESEGVVNDELPNCWECPKC [I35L],0.016 ± 0.094
12,LPHTAVCLVCGEAGKEDTVEEEEGKFNLMLMECSMCNEIIHPGCLKIKESEGVVNDELPNCWECPKC [I35M],0.023 ± 0.13
13,LPHTAVCLVCGEAGKEDTVEEEEGKFNLMLMECSRCNEIIHPGCLKIKESEGVVNDELPNCWECPKC [I35R],-0.022 ± 0.08
14,LPHTAVCLVCGEAGKEDTVEEEEGKFNLMLMECSECNEIIHPGCLKIKESEGVVNDELPNCWECPKC [I35E],-0.399 ± 0.22
15,LPHTAVCLVCGEAGKEDTVEEEEGKFNLMLMECSDCNEIIHPGCLKIKESEGVVNDELPNCWECPKC [I35D],-0.323 ± 0.2
16,LPHTAVCLVCGEAGKEDTVEEEEGKFNLMLMECSSCNEIIHPGCLKIKESEGVVNDELPNCWECPKC [I35S],-0.364 ± 0.19
17,LPHTAVCLVCGEAGKEDTVEEEEGKFNLMLMECSYCNEIIHPGCLKIKESEGVVNDELPNCWECPKC [I35Y],-0.548 ± 0.28
18,LPHTAVCLVCGEAGKEDTVEEEEGKFNLMLMECSVCNEIIHPGCLKIKESEGVVNDELPNCWECPKC [I35V],0.037 ± 0.096
19,LPHTAVCLVCGEAGKEDTVEEEEGKFNLMLMECSCCNEIIHPGCLKIKESEGVVNDELPNCWECPKC [I35C],-0.119 ± 0.21
20,LPHTAVCLVCGEAGKEDTVEEEEGKFNLMLMECSQCNEIIHPGCLKIKESEGVVNDELPNCWECPKC [I35Q],-0.149 ± 0.091

row,Variant,abundance fitness
1,LPHTAVCLVCGEAGKEDTVEEEEGKFNLMLMECSKCNEIIHPGCLKIKESEGVVNDELPNCWECPKC [I35K],-0.057 ± 0.12
2,LPHTAVCLVCGEAGKEDTVEEEEGKFNLMLMECSPCNEIIHPGCLKIKESEGVVNDELPNCWECPKC [I35P],-1.07 ± 0.3
3,LPHTAVCLVCGEAGKEDTVEEEEGKFNLMLMECSNCNEIIHPGCLKIKESEGVVNDELPNCWECPKC [I35N],-0.295 ± 0.23
4,LPHTAVCLVCGEAGKEDTVEEEEGKFNLMLMECSGCNEIIHPGCLKIKESEGVVNDELPNCWECPKC [I35G],-0.14 ± 0.11
5,LPHTAVCLVCGEAGKEDTVEEEEGKFNLMLMECSWCNEIIHPGCLKIKESEGVVNDELPNCWECPKC [I35W],-0.643 ± 0.12
6,LPHTAVCLVCGEAGKEDTVEEEEGKFNLMLMECSIENEIIHPGCLKIKESEGVVNDELPNCWECPKC [C36E],-0.736 ± 0.14
7,LPHTAVCLVCGEAGKEDTVEEEEGKFNLMLMECSIDNEIIHPGCLKIKESEGVVNDELPNCWECPKC [C36D],-0.549 ± 0.26
8,LPHTAVCLVCGEAGKEDTVEEEEGKFNLMLMECSIFNEIIHPGCLKIKESEGVVNDELPNCWECPKC [C36F],-1.21 ± 0.43
9,LPHTAVCLVCGEAGKEDTVEEEEGKFNLMLMECSINNEIIHPGCLKIKESEGVVNDELPNCWECPKC [C36N],-0.707 ± 0.24
10,LPHTAVCLVCGEAGKEDTVEEEEGKFNLMLMECSIHNEIIHPGCLKIKESEGVVNDELPNCWECPKC [C36H],-1.18 ± 0.43
11,LPHTAVCLVCGEAGKEDTVEEEEGKFNLMLMECSILNEIIHPGCLKIKESEGVVNDELPNCWECPKC [C36L],-0.643 ± 0.18
12,LPHTAVCLVCGEAGKEDTVEEEEGKFNLMLMECSIWNEIIHPGCLKIKESEGVVNDELPNCWECPKC [C36W],-1.38 ± 0.23
13,LPHTAVCLVCGEAGKEDTVEEEEGKFNLMLMECSIINEIIHPGCLKIKESEGVVNDELPNCWECPKC [C36I],-0.477 ± 0.25
14,LPHTAVCLVCGEAGKEDTVEEEEGKFNLMLMECSIANEIIHPGCLKIKESEGVVNDELPNCWECPKC [C36A],-0.78 ± 0.16
15,LPHTAVCLVCGEAGKEDTVEEEEGKFNLMLMECSIVNEIIHPGCLKIKESEGVVNDELPNCWECPKC [C36V],-0.921 ± 0.13
16,LPHTAVCLVCGEAGKEDTVEEEEGKFNLMLMECSIMNEIIHPGCLKIKESEGVVNDELPNCWECPKC [C36M],-0.619 ± 0.21
17,LPHTAVCLVCGEAGKEDTVEEEEGKFNLMLMECSIGNEIIHPGCLKIKESEGVVNDELPNCWECPKC [C36G],-0.794 ± 0.09
18,LPHTAVCLVCGEAGKEDTVEEEEGKFNLMLMECSIRNEIIHPGCLKIKESEGVVNDELPNCWECPKC [C36R],-0.72 ± 0.091
19,LPHTAVCLVCGEAGKEDTVEEEEGKFNLMLMECSISNEIIHPGCLKIKESEGVVNDELPNCWECPKC [C36S],-0.994 ± 0.22
20,LPHTAVCLVCGEAGKEDTVEEEEGKFNLMLMECSITNEIIHPGCLKIKESEGVVNDELPNCWECPKC [C36T],-0.961 ± 0.26
